Drawing on EP1506971A1, this text covers ED50, contraction of guinea-pig ileum longitudinal muscle and EC50, calcium mobilization in M2A7 melanoma cells (FLIPR) for two substances.

Assay [1] concerns the target prokineticin receptor(s) of guinea pig ileal membrane / ileal smooth muscle (guinea pig). Briefly: cell-based or functional assay.
The target of assay [2] is prokineticin receptor expressed endogenously on M2A7 melanoma cells (ATCC CRL-2500). Briefly: cell-based or functional assay.

For the substance “recombinant human prokineticin 1 (refolded, 6xHis-tagged, unlabeled) (from UniProt P58294 20-105) (ligand)”, in assay [1], the ED50, contraction of guinea-pig ileum longitudinal muscle was found to be 0.46 nM. Besides, in assay [2], the EC50, calcium mobilization in M2A7 melanoma cells (FLIPR) is 12 nM.

Substance “recombinant human prokineticin 2 (refolded, 6xHis-tagged, unlabeled) (from UniProt Q9HC23 28-129) (ligand)” showed an ED50, contraction of guinea-pig ileum longitudinal muscle in assay [1] of 0.9 nM. In addition, the EC50, calcium mobilization in M2A7 melanoma cells (FLIPR) in assay [2] amounted to 21 nM.
